Data reported in the MegaScale stability set (Tsuboyama et al. 2023).

B1: 6NMW (parent)
chain: QGDIVVALYPYDGIHPDDLSFKKGEKMKVLEEHGEWWKAKSLLTKKEGFIPSNYVAKLN

Variants of: B1
Experiment: folding stability dG (cDNA display proteolysis); higher = more stable
Settings: PBS, room temperature

Variant	folding stability dG [kcal/mol]
S52C	3.84
S52W	3.1
S52T	2.23
S52A	4.05
S52D	1.16
S52I	2.91
S52H	2.96
S52Q	3.31
S52L	2
S52Y	3.08
S52N	2.58
S52F	2.85
S52G	2.51
S52M	3.52
S52E	1.64
S52P	3.65
S52V	3.02
S52R	4.29
S52K	4.84
N53Y	3.12
N53K	3.93

Variant	folding stability dG [kcal/mol]
N53C	4.41
N53H	3.87
N53S	4.5
N53L	3
N53E	3.19
N53M	3.07
N53I	2.98
N53D	3.14
N53A	4.07
N53G	3.47
N53V	2.88
N53P	1.68
N53Q	3.5
N53R	4.09
N53W	4.69
N53T	3.74
N53F	3.06
F49M	4.22
F49R	3.83
F49T	2.25
F49N	3.4

Variant	folding stability dG [kcal/mol]
F49L	3.4
F49I	2.63
F49K	2.81
F49W	4.88
F49Q	2.25
F49V	2.3
F49H	1.88
F49G	0.912
F49P	-0.719
F49S	1.94
A56N	2.24
A56V	4.56
A56G	2.51
A56I	4.4
A56L	3.61
A56W	2.92
A56F	3.43
A56E	3.61
A56Y	3.8
A56T	3.8
A56S	3.31

Variant	folding stability dG [kcal/mol]
A56P	0.083
A56K	4.04
A56Q	3.85
A56C	4.6
A56H	3.07
A56D	2.03
A56M	4.36
A56R	4.18
I50A	0.132
I50W	-0.594
I50C	0.571
I50L	1.58
I50D	-0.59
I50V	2.59
I50P	-0.401
I50F	2.01
I50Y	-0.106
I50M	0.656
P51N	2.28
P51T	-0.429
